According to patent US20120156803A1:

Legend:
[1] = target: BBMVs prepared from Cry1Fa-resistant O. nubilalis (rECB) larvae (Ostrinia nubilalis); test: pull-down competition on rECB BBMVs; ^125I-Cry1Fa remaining bound with 1000 nM unlabeled Cry1Fa competitor
[2] = target: O. nubilalis (ECB) BBMV proteins (brush border membrane vesicles from wild type, Cry1Fa-sensitive larvae) (Ostrinia nubilalis); test: pull-down competition on ECB BBMVs; ^125I-Cry1Fa remaining bound with 1000 nM unlabeled Cry1Fa competitor
[3] = target: S. frugiperda (FAW) BBMV proteins / receptor(s) (brush border membrane vesicles from wild type, Cry1Fa-sensitive larvae) (Spodoptera frugiperda); test: pull-down competition on FAW BBMVs; ^125I-Cry1Fa remaining bound with 1000 nM unlabeled Cry1Fa competitor
[4] = target: S. frugiperda (FAW) BBMV proteins / receptor(s) (brush border membrane vesicles from wild type, Cry1Fa-sensitive larvae) (Spodoptera frugiperda); test: pull-down competition on FAW BBMVs; ^125I-Cry1Fa remaining bound with 1000 nM unlabeled Cry1Ca competitor
[5] = target: O. nubilalis (ECB) BBMV proteins (brush border membrane vesicles from wild type, Cry1Fa-sensitive larvae) (Ostrinia nubilalis); test: pull-down assay on ECB BBMVs, no competitor, phosphor-imaging densitometry
[6] = target: O. nubilalis (ECB) BBMV proteins (brush border membrane vesicles from wild type, Cry1Fa-sensitive larvae) (Ostrinia nubilalis); test: saturation binding of radioligand (0.5-20 nM) to 150 ug/mL ECB BBMV proteins, centrifugation and gamma counting
[7] = target: BBMVs prepared from Cry1Fa-resistant O. nubilalis (rECB) larvae (Ostrinia nubilalis); test: pull-down assay on rECB BBMVs, no competitor, phosphor-imaging densitometry
[8] = target: S. frugiperda (FAW) BBMV proteins / receptor(s) (brush border membrane vesicles from wild type, Cry1Fa-sensitive larvae) (Spodoptera frugiperda); test: pull-down assay on FAW BBMVs, no competitor, phosphor-imaging densitometry
[9] = target: BBMVs prepared from Cry1Fa-resistant S. frugiperda (rFAW) larvae (Spodoptera frugiperda); test: pull-down assay on rFAW BBMVs, no competitor, phosphor-imaging densitometry
[10] = target: S. frugiperda (FAW) BBMV proteins / receptor(s) (brush border membrane vesicles from wild type, Cry1Fa-sensitive larvae) (Spodoptera frugiperda); test: pull-down competition on FAW BBMVs; ^125I-Cry1Fa remaining bound with 1000 nM unlabeled Cry1Ab competitor

Substance: non-radioactive (unlabeled) Cry1Fa core toxin protein (trypsin-truncated) (from UniProt Q03746 1-603) (ligand)
- Relative Amounts of radio-iodinated Cry1Fa Protein Bound [1]: 51%
- Relative Amounts of radio-iodinated Cry1Fa Protein Bound [2]: 31%
- Relative Amounts of radio-iodinated Cry1Fa Protein Bound [3]: 0%

Substance: Cry1Ca core toxin protein (from UniProt P0A373) (ligand)
- Relative Amounts of radio-iodinated Cry1Fa Protein Bound [4]: 50%

Substance: ^125I radiolabeled fluorescein-Cry1Fa core toxin protein (trypsin-truncated) (from UniProt Q03746 1-603) (ligand)
- Relative Amounts of radio-iodinated Cry1Fa Protein Bound [5]: 100%
- Bmax [6]: 37 fmol/mg
- Kd [6]: 11 nM
- Relative Amounts of radio-iodinated Cry1Fa Protein Bound [7]: 64%
- Relative Amounts of radio-iodinated Cry1Fa Protein Bound [8]: 100%
- Relative Amounts of radio-iodinated Cry1Fa Protein Bound [9]: 10%

Substance: Cry1Ab core toxin protein (from UniProt P0A370 29-607) (ligand)
- Relative Amounts of radio-iodinated Cry1Fa Protein Bound [10]: -4%
